Several values for one entry are separate records, joined by “and”; a condition that tells them apart may be missing. Equal entries are not always repeated.
Tests used:
[1] = target: integrin αIIb peptide (Homo sapiens) (UniProt P08514); assay: SPR; conditions: cited from earlier work
human CIB2 [2] = target: T1, human CIB2 (Homo sapiens, UniProt O75838); assay: Cross-linking (DSBU)/MALDI-TOF-MS of CIB2 with α7B peptides; assay type: binding; conditions: 10 µM CIB2, 5, 10, 20 µM peptide, 50-fold DSBU; 20 mM HEPES pH 7.5, 1 mM Mg^2+, 2 mM Ca^2+, room temperature
T1 construct: made in house
T1 sequence (O75838 1-187): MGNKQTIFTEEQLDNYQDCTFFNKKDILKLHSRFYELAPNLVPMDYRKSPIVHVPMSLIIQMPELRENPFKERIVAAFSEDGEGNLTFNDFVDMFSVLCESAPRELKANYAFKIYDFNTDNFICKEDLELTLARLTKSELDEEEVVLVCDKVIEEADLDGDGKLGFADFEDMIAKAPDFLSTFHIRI
Description: CIB2 samples were cross-linked with DSBU in the presence of peptide α7B_M or α7B_Scrb as described in ref.[14] Briefly, 10 µM CIB2 was diluted in 20 mM HEPES, pH 7.5, 1 mM DTT, 1 mM Mg^2+ and 2 mM Ca^2+ and incubated with increasing peptide concentrations (5 µM, 10 µM, and 20 µM) for 10 min at room temperature. Then, 50-fold molar excess of DSBU was added and the reactions were conducted for 20 min at room temperature. As control, CIB2 was treated with DSBU without peptide. Reactions were blocked by adding ammonium bicarbonate to a final concentration of 20 mM.
Cross-linked CIB2 samples were desalted via ZipTip C4 tips (Millipore) before MALDI-TOF-MS analysis (Ultraflex III MALDI-TOF/TOF mass spectrometer, Bruker Daltonik, Bremen) was conducted using sinapinic acid as matrix. For further details see Supplementary Methods. Baseline subtraction and spectra smoothing were performed. […]
Cross-linking reactions and Mass Spectrometry
Cross-linking reactions were performed with 10 µM CIB2 (in 20 mM HEPES pH 7.5, 150 mM KCl, 1 mM DTT, 1 mM Mg2+, 2 mM Ca2+) and increasing concentrations of peptides α7B_M and α7B_Scrb, ranging from 0.5:1 to 2:1 peptide:protein ratios. After incubating the samples for 10 minutes at room temperature, DSBU (freshly prepared solution, dissolved in neat DMSO) was added to the mixture at 50-fold molar excess compared to CIB2 concentration. As the final volume of the reaction mixture was 50 µL, 1 µL of 25 mM DSBU was added to each sample. After 20 minutes, the cross-linking reactions were quenched by adding ammonium bicarbonate to a final concentration of 20 mM. Samples were incubated for 10 minutes before SDS-PAGE analysis was performed (data not shown). Samples for MALDI-TOF-MS measurements were desalted by ZipTip C4 (Millipore) and desalted protein was eluted with 70% (v/v) acetonitrile / 1% (v/v) formic acid. Each sample was mixed with a saturated solution of sinapinic acid (in 50% (v/v) methanol / 0.1% (v/v) TFA) at 1:1 ratio and spotted onto the MALDI target. […]

human CIB2 [3] = target: T1, human CIB2; assay: SPR interaction of α7B peptides with immobilized CIB2; assay type: binding; conditions: His-CIB2 capture (7.5 µM peptide, or 230 nM–30 μM) and amine-coupled untagged CIB2 (7.5–30 µM); 1 mM Mg^2+, 2 mM Ca^2+; experiments repeated 4 times
Description: SPR was also used to study quantitatively the interaction of CIB2 with one of its established targets, namely the cytoplasmic domain of integrin α7B[3],[7]. Three different peptides were used in the interaction experiments. A peptide corresponding to the membrane proximal segment of the cytoplasmic domain of α7B integrin (α7B_M), another peptide with the same amino acid content, but randomized sequence (α7B_Scrb) and a peptide covering the C-terminal region of the cytoplasmic domain of α7B integrin (α7B_C). Three different approaches were used. In a first approach, His-tagged CIB2 was initially coupled to the surface of a His-cap sensor chip (see Methods), thus ensuring homogeneous site-specific orientation, and then blocked via standard amine coupling. […] The minor differences in the spectra at the level of the phenylalanine band can be ascribed to the TEV-protease recognition site (ENLYFQ), uncleaved in the His-tagged protein. […] In a third approach, we used the same low levels of CIB2 immobilization via amine coupling described in the experiments to probe CIB2 dimerization (100–200 RU) and flowed the three peptides.
The second approach (direct peptide immobilization) led to very low signals and unreproducible results and was not pursued any further. […] In spite of such differences, which might reflect both the heterogeneity of the surface and the different chemistry of immobilization, interaction results were consistent with one another. […] It should be noted that both Huang et al.[7] and Häger et al.[3] used peptides from mouse integrin, while we used the corresponding human sequences, which in the case of α7B_C lacks the tryptophan residue present in the mouse sequence. It is not uncommon that fluorescence spectroscopy interaction studies based on the peptide intrinsic fluorescence (CIB2 has no tryptophan residue) reveal some non-specific binding, especially when a highly hydrophobic protein such as CIB2 is the ligand. […] It cannot be excluded that a similar phenomenon occurred for murine α7B_C in the work by Häger et al.[3]. Our present results, based on accurate, label-free interaction studies clearly identify the region covered by α7B_M as the preferential binding site of CIB2 with α7B integrin.
SPR titrations of α7B_M over homogeneously coupled CIB2 (approach 1) gave very reproducible results and were performed both in the presence of 1 mM Mg^2+ and in the co-presence of 1 mM Mg^2+ and 2 mM Ca^2+. Peptide concentration was varied in the 230 nM–30 μM range. As anticipated, sensorgrams could not fit to a 1:1 binding model, and the kinetic model that better fit the data was a bivalent analyte model (see Methods), in which one α7B_M peptide could bind to two CIB2 molecules. According to this scheme, binding of the peptide to the first CIB2 molecule would direct the binding to the second one, thus resulting in two sets of kinetic constants.
Details of the protein and peptide immobilization procedures and experimental settings are elucidated in the Supplementary Information.
Kinetic data were fitted according to a bivalent analyte model, were a CIB2 monomer (L) can bind an α7B_M peptide (A), and the resulting complex (AL) can bind to a second CIB2 molecule (AL2), with all processes being possibly reversible, as follows: A+L→ka1ALAL→kd1A+LAL+L→ka2AL2AL2→kd2AL+L […]

CIB2 [4] = conditions: peptide intrinsic fluorescence; cited from earlier work
Description: In a recent study[8] we investigated the capability of CIB2 to bind Ca^2+ and Mg^2+ thereby switching to a functionally distinct structural state. By integrating several biochemical and biophysical techniques we could establish that in the absence of any cation CIB2 forms a molten globule state that essentially lacks tertiary structure. […] This is quite unusual for Ca^2+-sensor pro ... || The second approach (direct peptide immobilization) led to very low signals and unreproducible results and was not pursued any further. […] In spite of such differences, which might ... || Interaction with α7B occurs in the region proximal to the membrane and not close to the C-terminus of the cytosolic domain of the integrin. The recognition between CIB2 and the α7B target is kinetically favored in the presence of physiological Mg^2+ and in the absence of Ca^2+ and it might induce binding of another CIB2 molecule. […] However, CIB2 per se binds a single peptide as a monomer, and the complex could then induce CIB2 dimerization, ...

integrin α7B peptide [5] = target: integrin α7B peptide (Homo sapiens, UniProt Q13683, Mg2+); assay: SPR
integrin α7B peptide [6] = target: integrin α7B peptide (Homo sapiens, UniProt Q13683, Mg2+ and Ca2+); assay: SPR
CIB2 [7] = assay: Near-UV circular dichroism; assay type: physicochemical, human; conditions: 20-30 µM, 37 °C, EGTA, 1 mM Mg^2+, 2 mM Ca^2+; 20 mM HEPES pH 7.5
Description: CIB2 tertiary structure was investigated by using a Jasco J-710 spectropolarimeter equipped with a Peltier type cell holder as previously described. Briefly: near-UV (250–320 nm) CD spectra of 20 μM of sole CIB2 or CIB2/α7B_M complexes (1:1 and 1:2 ratios) were collected in the presence of 500 μM EGTA and after sequential additions of 1 mM Mg^2+ and 2 mM free Ca^2+. A 1 cm quartz cuvette was used, temperature was set at 37 °C, integration time and data pitch were set to 4 s and 1 nm, respectively. Each spectrum represents the average of 5 accumulations. […]
Figure S4: Structural comparison of His-CIB2 (A) and CIB2 (B). Near-UV CD spectra (250-320 nm) of 20-30 µM CIB2 were collected at 37°C in a quartz cuvette with 1 cm length path. Sequential additions of 500 µM EGTA (black), 1 mM Mg2+ (blue) and 2 mM Ca2+ (red) were performed. Near-UV CD spectra of the buffer (20 mM HEPES pH 7.5, 150 mM KCl, 1 mM DTT) was considered as blank and subtracted. Each spectrum represents the mean of 5 accumulations. Data were normalized according to the protein concentration and the number of residues (Molar Residue Ellipticity, MRE).
Figure S5: Near-UV CD spectra of CIB2 in the presence of different stoichiometric ratios of alpha7B_M peptide. Near-UV CD spectra (250-320nm) of 20 μM CIB2 in the absence of peptide (black lines) and in the presence of two different protein/peptide ratios (1:1 blue lines; 1:2 red lines) collected at 37°C in the presence of 500 μM EGTA (A) and after sequential additions of 1 mM Mg2+ (B) and 2 mM free Ca2+ (C). The spectrum of alpha7B_M peptide in the absence of CIB2 is shown in dashed grey lines. […]

[8] = target: T2, His-tagged CIB2, human (TEV protease recognition site and His tag kept) (human, UniProt O75838 1-187); assay: SPR; His-tagged CIB2 captured by its His tag on a His-cap chip, then blocked via amine coupling; peptides injected (7.5 µM; α7B_M titrated 230 nM-30 µM); 20 mM HEPES pH 7.5, 150 mM KCl, 1 mM DTT, 1 mM Mg2+, 2 mM Ca2+, 50 µM EDTA, 0.005% Tween; bivalent analyte model and steady state analysis; apparent constants; conditions: both partners purified
T2 construct: It was used only in the SPR experiments where CIB2 was captured by its His tag; also called His-CIB2
T2 sequence (looked up): T1 sequence (O75838 1-187)

[9] = target: T3, Calcium- and Integrin-Binding protein 2 (CIB2), human, untagged (human, UniProt O75838 1-187); assay: cross-linking; 10 µM CIB2 incubated with 5, 10 or 20 µM peptide, then 50-fold molar excess of DSBU for 20 min at room temperature; 20 mM HEPES pH 7.5, 1 mM DTT, 1 mM Mg2+, 2 mM Ca2+; read by MALDI-TOF-MS of the intact protein; conditions: both partners purified
T3 construct: measured mass 21,767 Da by native ESI-MS; The printed mass (21.7 kDa) fits the whole protein; Residues may remain after TEV cleavage of the His tag; also called untagged CIB2; uncoupled CIB2
T3 sequence (looked up): T1 sequence (O75838 1-187)

[10] = target: T2, His-tagged CIB2, human (TEV protease …); assay: SPR; His-tagged CIB2 captured by its His tag on a His-cap chip, then blocked via amine coupling; α7B_M titrated 230 nM-30 µM in the presence of 1 mM Mg2+ without Ca2+; bivalent analyte model and steady state analysis; apparent constants; conditions: both partners purified

integrin αIIb peptide (Homo sapiens), sequence (P08514 1014-1039): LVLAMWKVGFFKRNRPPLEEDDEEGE

Molecule: CIB1 (from UniProt Q99828)
- Kd [1]: 12 µM

Molecule: KEFWGLHAKPRLKLMF [α7B_Scrb]
- CIB2/peptide complex formation, 1:1 (human CIB2 [2]): only minor signals for a 1:1 complex
- SPR interaction with CIB2 (human CIB2 [3]): interact with low affinity
- fluorescence titration of CIB2 (CIB2 [4]): some non-specific signal

Molecule: LAADGHPELGPDGHPGPGTA [α7B_C, peptide covering the C-terminal region of the cytoplasmic domain of α7B integrin]
- SPR interaction with CIB2 (human CIB2 [3]): could not detect any interaction

B1: CIB2 (protein)
chain: T1 sequence (O75838 1-187)
- Kd (integrin α7B peptide [5]): 11.6 µM
- Kd (integrin α7B peptide [6]): 25 µM

B2: His-tagged CIB2: CIB2 with the TEV protease recognition site and the Histag kept (protein)
chain: T1 sequence (O75838 1-187)
modifications: left off: His tag, end not stated, kept | TEV protease recognition site (ENLYFQ), end not stated, kept
- near-UV CD, tertiary structure vs untagged CIB2 (CIB2 [7]): substantially the same tertiary structure of the untagged protein

B3: α7B_M peptide, membrane proximal segment of the cytoplasmic domain of α7B integrin (peptide)
peptide: Ac-LLLWKMGFFKRAKHPE-NH2
notes: integrin α7B, human, membrane proximal segment of the cytoplasmic domain; also called α7B peptide; source: synthetic peptide, bought: Genscript
- Kd [8]: 154 µM
- stoichiometry N [9]: 1 peptide per CIB2 and 2 peptides per CIB2
- Kd [10]: 210 µM
